B1: Mineralocorticoid receptor, residues 600 to 675; numbered along this chain, P08235 (parent)
chain: SKICLVCGDEASGCHYGVVTCGSCKVFFKRAVEGQHNYLCAGRNDCIIDKIRRKNCPACRLQKCLQAGMNLGARKS

Variants of: B1
Experiment: abundance fitness (aPCA) (normalised: wild type 0, dead -1); higher = more abundant; growth selection in yeast, the domain comes from the species named
Conditions: Homo sapiens

Abundance fitness of substitutions, site by site:
G17: L -0.142 | E -0.007 | A -0.108 | V -0.228 | K -0.054 | N -0.126 | F -0.121
K25: P -0.058 | D -0.087 | Q -0.006 | A -0.065 | C -0.022 | V -0.035 | M -0.018 | T -0.105 | F -0.112 | I -0.069 | G -0.051 | S -0.033 | W -0.083 | E -0.01 | N 0.084 | H -0.128 | R -0.051
V26: I 0.031 | C -0.1 | M -0.058 | N -0.123 | D 0.024 | Q 0.001 | R 0.033 | H -0.03 | K 0.008 | A -0.044 | E -0.022 | Y 0.005 | L -0.049 | W 0.009
K29: E -0.105 | H -0.002 | A 0.016 | M -0.04 | N -0.109 | Q -0.003 | R -0.021 | C -0.142 | D 0.007 | F -0.167 | S -0.04 | W -0.085 | T -0.012 | P -0.076 | G -0.048 | V -0.095 | L -0.072
V18: W -0.457 | I 0.045 | H -0.333 | R -0.078 | Q -0.15 | C 0.112 | L -0.06 | F -0.274 | M -0.233 | K -0.101 | P -0.157 | Y -0.284 | T -0.444 | E -0.202 | G -0.117 | D -0.155
E33: D -0.043 | C -0.107 | W -0.099 | K 0.044 | A -0.28 | H -0.077 | V -0.01 | F -0.137 | G 0.062 | T -0.051 | Y -0.088 | P -0.128 | Q -0.039 | N -0.089 | L -0.109 | I -0.124 | S 0.008 | M -0.049
G22: N -0.236 | M -0.035 | L -0.094 | Y -0.222 | S -0.058 | H -0.109 | T -0.11 | A -0.013 | W -0.088 | C -0.178 | E -0.017 | D 0.008 | K -0.063 | P -0.054 | Q -0.16 | I -0.259 | V -0.093 | R -0.103
C21: I -0.803 | V -1.11 | E -0.854 | W -1.22 | A -0.977 | T -1.22 | Y -0.731 | M -0.969 | Q -0.567 | G -1.03 | K -1.25 | F -0.515 | R -0.962 | P -1.05
R30: H 0.043 | Y -0.121 | P 0.293 | W -0.29
S23: A -0.125 | W -0.193 | Q -0.013 | Y -0.038 | F -0.168 | L -0.104 | N 0.051 | T -0.164 | G 0.009 | I -0.42 | K -0.007 | C -0.253 | M -0.085 | H -0.143 | D 0.01 | E 0.003 | P 0.026
F27: Y -0.33 | Q -0.847 | C -0.801 | T -0.638 | A -0.434 | W -0.223 | V -0.591 | I -0.608 | M -0.861 | H -0.427 | E -0.961 | L -0.65 | G -0.827 | K -0.924 | P -0.761 | D -0.676 | R -1.15
A31: L -0.553 | G 0.001 | S -0.022 | H -0.616 | V 0.194 | E -0.022 | F -0.104 | M 0.474
